Results: patent publication US20190040115A1 (IMMATICS BIOTECHNOLOGIES, published 2019)

Target: T1, HLA-A*02:01 (human)
T1 construct: captured on streptavidin plates; also called peptide-receptive MHC molecules
Assay: UV peptide exchange ELISA (anti-b2m); yield grade: + >10%, ++ >20%, +++ >50, ++++ >75%
Description: Candidate peptides for T cell based therapies according to the present invention were further tested for their MHC binding capacity (affinity). The individual peptide-MHC complexes were produced by UV-ligand exchange, where a UV-sensitive peptide is cleaved upon UV-irradiation, and exchanged with the peptide of interest as analyzed. Only peptide candidates that can effectively bind and stabilize the peptide-receptive MHC molecules prevent dissociation of the MHC complexes. To determine the yield of the exchange reaction, an ELISA was performed based on the detection of the light chain (β2m) of stabilized MHC complexes. The assay was performed as generally described in Rodenko et al. (Rodenko et al., 2006).
96 well MAXISorp plates (NUNC) were coated over night with 2 ug/ml streptavidin in PBS at room temperature, washed 4× and blocked for 1 h at 37° C. in 2% BSA containing blocking buffer. Refolded HLA-A*02:01/MLA-001 monomers served as standards, covering the range of 15-500 ng/ml. Peptide-MHC monomers of the UV-exchange reaction were diluted 100 fold in blocking buffer. Samples were incubated for 1 h at 37° C., washed four times, incubated with 2 ug/ml HRP conjugated anti-β2m for 1 h at 37° C., washed again and detected with TMB solution that is stopped with […]. Absorption was measured at 450 nm. Candidate peptides that show a high exchange yield (preferably higher than 50%, most preferred higher than 75%) are generally preferred for a generation and production of antibodies or fragments thereof, and/or T cell receptors or fragments thereof, as they show sufficient avidity to the MHC molecules and prevent dissociation of the MHC complexes.

Row | Binder | peptide exchange yield [%]
1 | KTWDQVPFSV | > 75
2 | HLIGWTAFL | > 75
3 | LLSEIEEHL | > 75
4 | VLMEMSYRL | 50 to 75
5 | KLGFGTGVNVYL | > 75
6 | VLFGAVITGA | > 75
7 | ALFAAGANV | 50 to 75
8 | ILDEEKFNV | 50 to 75
9 | ILDEPTNHL | 20 to 50
10 | FLPRKFPSL | > 75
11 | LLKDSIVQL | 50 to 75
12 | LLDDPTNAHFI | 50 to 75
13 | KILPDLNTV | > 75
14 | FIDPEQIQV | 50 to 75
15 | VLFKDPVSV | > 75
16 | ALPPPPASI | 50 to 75
17 | TLLHFLAEL | > 75
18 | SLVAILHLL | 50 to 75
19 | LLPDPLYSL | 20 to 50
20 | KLLELQELVL | > 75
21 | VMSSTLYTV | > 75
22 | KVPEIEVTV | > 75

Row | Binder | peptide exchange yield [%]
23 | ALDSDPVGL | 50 to 75
24 | GLDSGFHSV | > 75
25 | ILDEGHILQL | > 75
26 | SILDGLIHL | 50 to 75
27 | LIDKIIEYL | 20 to 50
28 | KMVGDVTGA | 50 to 75
29 | FLPFLTTEV | > 75
30 | QLYNQIIKL | > 75
31 | LLDSGAFHL | 50 to 75
32 | EVISKLYAV | 50 to 75
33 | STLHLVLRL | 50 to 75
34 | VLYNESLQL | > 75
35 | NLDKLYHGL | 10 to 20
36 | VLFPMDLAL | 50 to 75
37 | KIEDLIKYL | 50 to 75
38 | FLDSEVSEL | 50 to 75
39 | SLYSYFQKV | > 75
40 | SVNGFISTL | 20 to 50
41 | ILDDVAMVL | 50 to 75
42 | HLDQIFQNL | 20 to 50
43 | FLETNVPLL | 50 to 75

Now from value to binder:

Row | peptide exchange yield [%] | Binder
44 | 50 to 75 | LLSNTVSTL
45 | 50 to 75 | NMMSGISSV
46 | 50 to 75 | SLLPTEQPRL
47 | 50 to 75 | TLKEYLESL
48 | 50 to 75 | FLYTYIAKV
49 | 50 to 75 | LLPELRDWGV
50 | 50 to 75 | FVYGEPREL
51 | 20 to 50 | VLKADVVLL
52 | > 75 | YLINFEIRSL
53 | > 75 | TLWYVPLSL
54 | > 75 | ALLSQDFEL
55 | 50 to 75 | SAAEPTPAV
56 | > 75 | ALADLQEAV
57 | > 75 | HLDEARTLL
58 | 50 to 75 | GLDIITNKV
59 | 50 to 75 | IVDNTTMQL
60 | > 75 | LLEPFVHQV
61 | > 75 | LLDPTNVFI
62 | > 75 | FLLEQEKTQAL
63 | 10 to 20 | NLDYAILKL
64 | > 75 | VLNEYFHNV
65 | > 75 | FLNLFNHTL
66 | 50 to 75 | FLGDPPPGL
67 | 20 to 50 | FMYNFQLVTL
